# Assay results reported in patent US11325945B2, “Peptide based PCSK9 vaccine” (CADILA HEALTHCARE LIMITED, priority 2017, dated 2022).
# Non-standard residues stand in square brackets, D forms with d. Primed or numbered codes have the meaning given here. No end group written: not given here. 2‑aminophenyl pentanoic acid = 2-Aminophenyl pentanoic acid; Hyp = O=C(O)[C@@H]1C[C@@H](O)CN1; NMeI = CC[C@H](C)[C@H](NC)C(=O)O; hArg = N=C(N)NCCCC[C@H](N)C(=O)O; Cit = NC(=O)NCCC[C@H](N)C(=O)O; Nle = CCCC[C@H](N)C(=O)O; Aib = CC(C)(N)C(=O)O
# What was measured:
# [1] = target: T1, recombinant human PCSK9 (Homo sapiens, UniProt Q8NBP7); test: Affinity of new peptides for recombinant human PCSK9 by surface plasmon resonance (Biacore T200); type: binding; settings: SPR, 25° C.
# T1 construct: His; purchased BPS Biosciences
# T1 sequence (Q8NBP7 153-692): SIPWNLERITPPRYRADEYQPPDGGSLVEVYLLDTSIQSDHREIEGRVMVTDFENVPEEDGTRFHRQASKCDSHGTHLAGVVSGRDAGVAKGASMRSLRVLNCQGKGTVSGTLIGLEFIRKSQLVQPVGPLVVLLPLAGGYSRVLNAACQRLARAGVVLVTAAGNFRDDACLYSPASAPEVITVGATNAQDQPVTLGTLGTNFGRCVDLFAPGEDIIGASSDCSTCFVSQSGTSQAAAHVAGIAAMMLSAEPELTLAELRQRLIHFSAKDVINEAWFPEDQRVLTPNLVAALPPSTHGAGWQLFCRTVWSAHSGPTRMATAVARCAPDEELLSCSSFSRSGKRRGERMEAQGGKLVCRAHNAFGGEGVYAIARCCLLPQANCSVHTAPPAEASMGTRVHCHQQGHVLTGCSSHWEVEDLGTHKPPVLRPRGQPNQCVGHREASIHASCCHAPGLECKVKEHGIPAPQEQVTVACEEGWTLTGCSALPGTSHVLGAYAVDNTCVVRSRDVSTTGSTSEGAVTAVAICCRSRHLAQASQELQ
# Procedure: (§1) Affinity parameters of new peptides for recombinant human PCSK9 were analyzed by surface plasmon resonance (SPR), using a Biacore instrument (Biacore T200, GE Healthcare). SPR experiments were performed at 25° C. with a BIACORE T200 apparatus (GE Healthcare, Uppsala, Sweden).
# (§2) Purified recombinant human PCSK9 (His-tagged, BPS Biosciences) diluted to 100-150 μg/mL in 10 mM acetate buffer, pH 5.0, was immobilized on one of the four flow cells of a Series S Sensor Chip CMS to a level of approximately 6000 to 8000 RU (resonance units) by the use of amine-coupling chemistry. The surface was blocked with 1M ethanolamine, pH 8.5. Whereas one flow cell was immobilized as blank for reference subtraction (no PCSK9). 10 mM Hepes (pH 7.4) with 150 mM NaCl was used as running buffer. The rest two flow cells were saved for future use.
# (§3) 100× Stock solutions of NCE (new peptides) were made in 100% DMSO and were diluted to range of concentrations in 10 mM Hepes, pH7.4+150 mM NaCl so that the final conc of DMSO is kept at 1%. Binding/Kinetics studies were conducted by passing various concentrations of NCEs over blank as well as ligand (protein) immobilized surface. Each cycle consisted of a 60 s or 120 s analyte (diluted small molecule drug) injection at flow rate with between 5 to 30 μL/min (the association phase), followed by a dissociation phase with between 60 to 180 s. If required, regeneration was done using a 30 s (15 μL) injection of 10 mM glycine/HCl (pH 1.5) and 20 s or 30 s (10 or 15 μL) injection of 10 mM NaOH. The data were analyzed using the Biacore T200 Evaluation software. All the curves were reference-subtracted. Baselines were adjusted to zero for all curves and data were presented as binding RU (Average of 5 s window) 5 s before end of sample injection.
# For KD (equilibrium dissociation constant) determinations analyte curves were subtracted from buffer blank and modeled assuming a simple 1:1 interaction to generate the kinetic data.
# [2] = system: PCSK9; test: Immunogenicity study in BALB/c mice: anti-PCSK-9 ELISA antibody titers in serum; type: in vivo, mouse; settings: peptide formulations, in words
# Procedure: (§4) Female BALB/c mice of 12-15 weeks of age issued from animal house and kept for […]. Mice had access to food and water ad libitum and were kept under a 12 hrs light/dark cycle. On Day-0 (pre-treatment) animals bled and serum was harvested for total cholesterol measurement. Animals were randomized and grouped to various treatments based on their total cholesterol and body weights. On next day of Day-0 (pre-treatment) blood collection animals were immunised with 0.3 ml of vaccine formulations as mentioned Table No. 1 by subcutaneous or intramuscular route. Next booster injection was given on 2 weeks and 4 weeks after first injection and animals were bled for immunogenicity measurement on two weeks thereafter till week 7 and then every four week till 32 week, detailed schedule of blood collection was Day-0 (pre-treatment) from there 5th, 7th, 20th, 24th, 28th, 32nd, 45th and 57th week after first vaccine administration. Serum was separated and serum total cholesterol was measured and immunogenicity or antibody confirmation was done using ELISA for PCSK9 antibody titer, binding of serum antibodies with human PCSK9 using Surface plasmon resonance (SPR) assay and LDLR-PCSK9 interaction inhibition assay.
# At specific intervals of time (15 days post immunization with each booster), serum samples were collected from all groups of mice. 96-well ELISA plates (#442402) were pre-coated with PCSK-9 protein 50 ng/well and plate incubated overnight at 2-8° C. Next day, wells were washed to remove unbound protein and blocked in 2% skimmed milk-PB ST for 2 hours, and washed with PBST. Sera samples were diluted 1:20 with 0.2% skimmed milk made in PBST. Appropriate volume of samples and standards was added to each well, and incubated for 1 hour at 37° C. Anti-mouse IgG secondary HRP-labeled antibody was added to each well and incubated at 37° C. for 1 hour, then washed. […] Plates were read at 492 nm on a Spectramax microplate reader. […] By using the negative control value, cut-off value was calculated and the corrected OD's above the cut off value were treated as […]. […]
# [3] = system: LDLR-PCSK9 interaction; test: LDLR-PCSK9 interaction inhibition assay with serum from vaccine treated animals (PCSK9[Biotinylated]-LDLR Binding Assay Kit); type: biochemical; settings: peptide formulations, week 5, in words
# Procedure: as §4
# Inhibition of LDLR-PCSK9 interaction by antibody (Ab) in serum from vaccine treated animal were assayed using BPS Bioscience in-vitro PCSK9[Biotinylated]-LDLR Binding Assay Kit (BPS Bioscience, San Diego, Calif., USA) with minor modifications. First, LDLR ectodomain is coated on a 96-well plate and plate was incubated overnight. Next, PCSK9-biotin was diluted in 1×PCSK9 assay buffer to obtain 2.5 ng/μl (50 ng/20 μl) concentration and this master mix, test inhibitor (serum samples from animal studies), inhibitor buffer was added to LDL-R coated plate and incubated at room temperature for 2 hours. Finally, the plate is treated with streptavidin-HRP followed by addition of an HRP substrate to produce chemiluminescence, which was then measured using a chemiluminescence reader according to the manufacturer's instructions. […]
# [4] = system: human PCSK9; test: Serum antibody detection by affinity determination against human PCSK9 using SPR assay; type: binding
# Procedure: as §1, §2
# as §3, with “Baselines were adjusted to zero for all curves and data were presented as binding RU (Average of 5 s window) 5 s before end of sample injection.” left out
# Female BALB/c mice of 12-15 weeks of age issued from animal house and kept for 2-3 acclimatization. […] Serum was separated and serum total cholesterol was measured and immunogenicity or antibody confirmation was done using ELISA for PCSK9 antibody titer, binding of serum antibodies with human PCSK9 using Surface plasmon resonance (SPR) assay and LDLR-PCSK9 interaction inhibition assay.
Substance,Binding - Response Unit(RU) ([1]; peptide 50 μM),Binding - Response Unit(RU) ([1]; peptide 100 μM),antibody titers against human PCSK9 as compared to Seq.ID.No.1 [2],LDLR-PCSK9 interaction inhibition compared with Seq. ID No.1 [3],"antibody response (SPR) as compared to Seq.ID.No. 1 ([4]; week 5, in words)","antibody response (SPR) as compared to Seq.ID.No. 1 ([4]; week-57, in words)"
1 (SIPWNLERITPC; PCSK9) [compound 1],7.4 RU,,,,,
4 (SIPWNLER[Nle]TPC) [compound 4],13.05 RU,30.00 RU,,,,
5 (SIPWNLER[Aib]TPC) [compound 5],2.30 RU,7.10 RU,,,,
6 (SIPWNLE[hArg]ITPC) [compound 6],6.55 RU,17.50 RU,,,,
7 (SIPWN[Nle]ERITPC) [compound 7],6.65 RU,16.00 RU,,,,
8 (SI[Hyp]WNLERITPC) [compound 8],5.70 RU,13.25 RU,,,,
10 (SIPWN[Aib]ERITPC) [compound 10],3.00 RU,7.50 RU,,,,
12 (SIPWNLE[Cit]ITPC) [compound 12],3.10 RU,6.70 RU,,,,
13 (SIPWNLERI[Aib]PC) [compound 13],9.75 RU,37.35 RU,,,,
14 ([Aib]IPWNLERITPC) [compound 14],7.10 RU,15.00 RU,,,,
15 (S[NMeI]IPWNLERITPC) [compound 15],11.45 RU,29.85 RU,,,,
18 (SIP[2‑aminophenyl pentanoic acid]NLERITPC) [compound 18],10.20 RU,17.85 RU,,,,
"19 (SIP[(S)‑2‑amino‑3‑(2′-ethyl-4′-methoxy-(1,1′-biphenyl)-4-yl)propanoic acid]NLERITPC) [compound 19]",35.15 RU,85.90 RU,,,,
SI-Hyp-WNLERITPC (SI[Hyp]WNLERITPC) [Seq. ID. No. 8],,,higher,significantly higher,significantly higher antibody response,
SIPWN-Nle-ERITPC (SIPWN[Nle]ERITPC) [Seq. ID. No. 7],,,higher,significantly higher,,
SIPWNLE-Cit-ITPC (SIPWNLE[Cit]ITPC) [Seq. ID. No. 12],,,higher,significantly higher,significantly higher antibody response,significantly higher antibody response
